Reference: the supplement of paper PMC7125110
± gives the standard error. Variants at the floor of the assay were thinned out.

B1: glmS ribozyme (parent)
chain: AUAAAAGCGCCAGAACUACAGAAAUGUAGUUGACGAGGAGGAGGUUUAUCGAAUUUUCGGCGGAUGCCUCCAAA

Variants of: B1
Test: self-cleavage kobs at 2500 uM GlcN6P; higher = faster cleavage; RNA array
Conditions: with glucosamine-6-phosphate
Procedure, shortened: (§1)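 A hybridised Cy3 probe tracked barcoded ribozyme variants, transcribed in situ by E. coli RNA polymerase on sequenced MiSeq chips, at 37 °C. The variants received 40 μM to 10 mM glucosamine-6-phosphate in HEPES/KCl/Mg(OAc)2 buffer. kobs came from decay fits and kcat and KM from weighted Michaelis–Menten fits.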

Variant	self-cleavage kobs at 2500 uM GlcN6P [s⁻¹]
G7U C16A U30C A52U G60U C71G	< 1e-05
C8G A15C A36G	< 1e-05
C8U A12C U30A	< 1e-05
G9A A14G U56G	5.76e-05 ± 2.3e-05
G9A C16G A33C G51U U54A C58U	< 1e-05
C8U U30A U46G	< 1e-05
C11A U30G G43C C68G C71U	0.000269 ± 9.8e-05
G7C C10G A48C	< 1e-05
C11G A12G G29A U31G G43U U49A G51U U54C C61U	< 1e-05
A12C C16U U57A	4.57e-05 ± 1.5e-05
C10U G32A G37A A42U C50A U69G	< 1e-05
G9U A36U C50G U54G U57A C67U	0.000182 ± 3.6e-05
A12G C16G C68G	0.00102 ± 0.0005
A12G A14U A64G	0.000293 ± 7.2e-05
C8G U30C A36C U69C	< 1e-05
C10U C67G C68U	0.000126 ± 4.8e-05
C8A G32U A42U A48G G51C	< 1e-05
C10U C11A G40A	< 1e-05
A12C A36C C71A	< 1e-05
G7C G51U G59A	< 1e-05
C10A C50A C67U	0.000776 ± 0.00021
C8U C16U G60C C71G	< 1e-05
G7U C8U G35C G62A	< 1e-05
G7C A52U U55G C68G	< 1e-05
C11U G40C G44A G51A C61G C71A	< 1e-05
G9U G40A U45G C50A	< 1e-05
C8U C10A A15C	< 1e-05

Variant	self-cleavage kobs at 2500 uM GlcN6P [s⁻¹]
A12C U65G U69C	0.000703 ± 0.0002
A12G G63A C67A	< 1e-05
C10U G60C G62U	< 1e-05
C8U G37U A39C	< 1e-05
A12C C50U G60U C67U	< 1e-05
C10U G13A A52U U69G	4.08e-05 ± 1.4e-05
C11A U30G A53U	0.00017 ± 4.1e-05
A12G U30C C58A	0.000105 ± 3.1e-05
G9U C10U C34U U46A	< 1e-05
A12C A15C A39G A64G C70U	< 1e-05
G9C C11U G29C G59C	< 1e-05
C10A C11A G38C G41A	< 1e-05
C10U A52U A53U U55C U65G	< 1e-05
C11U A39G A42G	0.00125 ± 0.00043
C8U A15G G43A	< 1e-05
G9A U31G G40C	< 1e-05
G9U U45G G62C G66C	< 1e-05
A12G G44U G59C G60C	< 1e-05
C11G G29A C70U	6.76e-05 ± 3.2e-05
G7C A53U U54G	< 1e-05
C10A A33U A48U	< 1e-05
C10A G63A C71U	< 1e-05
C8U A15C G63C	< 1e-05
C11A A12U G35U C50G	0.000171 ± 4.2e-05
G7C G40U C50G G66C	< 1e-05
C8U C34U G63C	< 1e-05
C10G A12C G44A C68U	< 1e-05

Variant	self-cleavage kobs at 2500 uM GlcN6P [s⁻¹]
C11A A42U G43A	< 1e-05
C10A A12U G37U U45A	< 1e-05
G9U G29U G35U G38C U45G U49A	< 1e-05
C8G A14C C71G	< 1e-05
C11U U30G C68G	< 1e-05
C8A U45G U57A	< 1e-05
A12G G29C G37A U46A	< 1e-05
G7C A42G U69G	< 1e-05
A12G U49G A64G	9.53e-05 ± 2.8e-05
G9C A33C G38C A39C U65G	< 1e-05
A12C A36G G40U G43U U54G	< 1e-05
C11G G29C A36G U69G	0.001 ± 0.00046
C11U G60U C68A	< 1e-05
G9U G66U U69G	< 1e-05
A12C G40U U54A	0.000324 ± 6.9e-05
C8U A36C G51U C68A	< 1e-05
C10A C34A U65C G66C C71G	< 1e-05
A12C G66U C70A	0.000107 ± 2.6e-05
C10A G40A U55A	< 1e-05
C11U U30C A39G A42G	0.000103 ± 3.7e-05
C8A A39G A48U	< 1e-05
C8U G37U	< 1e-05
A12G G32U G40U	0.000317 ± 0.00011
G9U U47G C68U	< 1e-05
G7C A48U A64U C67U	< 1e-05
C11U C50A G51U C61A	9.9e-05 ± 3.3e-05

Variants of: B1
Test: self-cleavage kobs at 10000 uM GlcN6P; higher = faster cleavage; RNA array
Conditions: with glucosamine-6-phosphate
Procedure, shortened: as §1

Variant	self-cleavage kobs at 10000 uM GlcN6P [s⁻¹]
C11A U30G G43C C68G C71U	0.000118 ± 3e-05
A12C C16U U57A	0.000157 ± 3.4e-05
C8G U30C A36C U69C	< 1e-05
C10A C50A C67U	4.36e-05 ± 1.7e-05
A12G U49G A64G	7.02e-05 ± 2e-05
C8U A36C G51U C68A	< 1e-05
